Target: 移除了糖基化位点(Asn-38)的H7 HA(A/鸡/意大利/99假病毒) (influenza A virus A/chicken/Italy/99 (H7))
Assay: cell-based or functional assay

Row | Substance | H7假病毒中和 IC50 [mg/L]
1 | CR6261 (antibody) | > 50
2 | F10 (antibody) | > 50
